Data taken from publication PMC11148156, “Substrate scope expansion of 4-phenol oxidases by rational enzyme selection and sequence-function relations” (Communications Chemistry, 2024).

How the values were obtained:
NspEUGO = target: T1, NspEUGO (Nocardioides sp. YR527, UniProt A0A1G9AL67); test: xylenol orange assay (initial rate); format: biochemical; details: 2 mM substrate, 50 mM potassium phosphate pH 7.5
T1 construct: gene SAMN05428985_103382; recombinant, expressed in E. coli; flavin-dependent; details in supplement
T1 sequence (A0A1G9AL67 1-529): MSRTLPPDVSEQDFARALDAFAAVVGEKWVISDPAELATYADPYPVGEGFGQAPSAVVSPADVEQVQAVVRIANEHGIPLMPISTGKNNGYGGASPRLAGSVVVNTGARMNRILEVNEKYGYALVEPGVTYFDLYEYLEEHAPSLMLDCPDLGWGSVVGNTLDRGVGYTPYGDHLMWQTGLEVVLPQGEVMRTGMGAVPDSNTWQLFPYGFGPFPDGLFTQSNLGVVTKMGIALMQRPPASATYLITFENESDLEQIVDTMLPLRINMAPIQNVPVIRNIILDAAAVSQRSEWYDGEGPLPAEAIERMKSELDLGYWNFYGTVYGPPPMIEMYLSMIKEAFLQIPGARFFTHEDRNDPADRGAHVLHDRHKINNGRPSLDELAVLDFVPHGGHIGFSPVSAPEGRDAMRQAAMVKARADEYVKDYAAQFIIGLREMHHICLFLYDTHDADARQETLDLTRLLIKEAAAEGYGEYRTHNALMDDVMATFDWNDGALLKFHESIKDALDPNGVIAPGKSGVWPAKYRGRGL

RjEUGO = target: T2, RjEUGO (Rhodococcus jostii, UniProt Q0SBK1); test: xylenol orange assay (initial rate); format: biochemical; details: 2 mM substrate, 50 mM potassium phosphate pH 7.5
T2 construct: gene RHA1_ro03282; recombinant, expressed in E. coli; flavin-dependent; details in supplement
T2 sequence (Q0SBK1 1-526): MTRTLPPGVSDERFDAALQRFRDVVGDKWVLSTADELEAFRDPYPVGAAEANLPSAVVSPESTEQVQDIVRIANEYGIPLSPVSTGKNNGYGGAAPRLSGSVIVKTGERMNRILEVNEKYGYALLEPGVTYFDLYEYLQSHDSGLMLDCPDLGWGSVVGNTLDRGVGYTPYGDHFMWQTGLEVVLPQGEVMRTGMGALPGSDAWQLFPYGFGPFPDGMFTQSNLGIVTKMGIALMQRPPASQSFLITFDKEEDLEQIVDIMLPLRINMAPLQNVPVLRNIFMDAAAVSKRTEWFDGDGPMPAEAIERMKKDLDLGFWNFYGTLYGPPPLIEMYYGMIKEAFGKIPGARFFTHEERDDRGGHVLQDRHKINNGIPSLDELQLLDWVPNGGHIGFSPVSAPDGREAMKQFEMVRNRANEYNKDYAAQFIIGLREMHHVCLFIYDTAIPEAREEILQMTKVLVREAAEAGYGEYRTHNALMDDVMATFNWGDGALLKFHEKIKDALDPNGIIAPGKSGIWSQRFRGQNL

[1] = substrate: C=CCc1ccc(O)c(OC)c1; test: Michaelis-Menten kinetics; format: biochemical, Geodermatophilaceae bacterium; details: optimal conditions for both enzymes (see supplement)
[2] = substrate: COc1cc(CO)ccc1O; test: Michaelis-Menten kinetics; format: biochemical, Geodermatophilaceae bacterium; details: optimal conditions for both enzymes (see supplement)
[3] = substrate: OCc1ccc(O)cc1; test: Michaelis-Menten kinetics; format: biochemical, Geodermatophilaceae bacterium; details: pH 9.5
[4] = substrate: C=CCc1ccc(O)c(OC)c1; test: Michaelis-Menten kinetics; format: biochemical, Arthrobacter sp. UCD-GKA; details: optimal conditions for both enzymes (see supplement)
[5] = substrate: COc1cc(CO)ccc1O; test: Michaelis-Menten kinetics; format: biochemical, Arthrobacter sp. UCD-GKA; details: optimal conditions for both enzymes (see supplement)
[6] = substrate: OCc1ccc(O)cc1; test: Michaelis-Menten kinetics; format: biochemical, Arthrobacter sp. UCD-GKA; details: pH 9.5

For `CCCCOCc1ccc(O)c(OC)c1` [compound 13, vanillyl butyl ether], the “xylenol orange assay (initial rate)” value (NspEUGO) was “NspEUGO which is the most active wildtype enzyme on vanillyl butyl ether”.

In the case of `Oc1ccc(C2CCCC2)cc1` [compound 42, 4-cyclopentyl phenol], the “xylenol orange assay (initial rate)” value (RjEUGO) is reported as “RjEUGO which was the most active wildtype enzyme for 4-cyclopentyl phenol”.

B1: GbEUGO (Geodermatophilaceae bacterium) (protein)
chain: MSRILPPELSDSDFDAAIARFRDVVGEKHVLTEDGDLSRYRDPYPVGGQPSGGASAAVAPETSEQVQEIVRIANEYGVPLSPISTGKNNGYGGGQPRLSGAVVVDTGLRMNRILEVNEKFGYALLEPGVSYFDLYEHLQANAPSLMLDCPDLGWGSVVGNTLDRGVGYTPYGDHLMWQTGLEVVLPTGDVMRTGMGAVPGSNAWQLFPYGFGPFPDGLFTQSNLGIVTKMGIALMQRPPASETFVISFDREEDLEQVVDIMLPLRINMAPLQNVPVLRNIILDAGVVSKRTEWHDGDGPLPPEAISRMKAELGLGYWNLYGTVYGPPPVLEAHLGIIKDAFLQVPGSRFATTQDRDEATDRGAHVLHDRHRINNGIPSLDEMKLMEFVPNGGHIGFSPVSAPDGADALRQSQMVRRRADEYRKDYAAQFIVGLREMHHIGLFLFDTTDAVARQETLDLARVLIDEAAAAGYGEYRTHNALMDQVMGTYNWGGDALLKFHETIKDALDPNSVMAPGKSGIWGRKYRDRALA
notes: recombinant, expressed in E. coli; flavin-dependent; details in supplement
B1 showed a Km [1] of 23 ± 1 µM, a kcat [1] of 23 ± 0.2 s⁻¹ and a Km [2] of 31 ± 1 µM. It also gave a kcat [2] of 16 ± 0.4 s⁻¹, a Km [3] of 455 ± 50 µM and a kcat [3] of 18 ± 1 s⁻¹.

B2: AspEUGO (Arthrobacter sp. UCD-GKA) (protein)
chain: MSRIIPLDVSEADFDAALEEFRGALGAQWVLSSPVELEAFADPYPTTNGLEFLPGAVISPSTPEEVQVIVGIANKYKVPLSPVSTGKNLGYGGAAPRLSGTVVVNTGERMNKIIEVNEKYAFALVEPGVTYFDLYNHIQEKGYNLWIDVPDLGWGSIVGNTLDRGVGYTPYGDHWSWQTGLEVVLPDGDLLRTGMGAMSGSDAWQLFPYGFGPYPDGLFSQSNYGIVTKLGIALMPAPPASETFLITFENEADLEQVIDIMLPLRIGMAPLQNVPVLRNIFMDAAAVSHRDEWHAGPGHLSDDEIKTMQRELNLGYWNLYASVYGPPPQIEMFLAMIKEAFLQVPGARFATTKDRPESPEDRGGHVLHDRHKINRGIPTIEERHLMDWVPNGGHTSFSPVSAPDGKDAMRQALMVKKRADEFGQDYAAQFIVGLREMHHICLFLYNTAVPRERDNTLAMARILVEEAADAGYGEYRTHLALMDQVMATFDYNDGALLRFHERVKDALDPNSIMAPGKSGIWGARYRDRGLELLHAPALEDSTPNSA
notes: as for B1
In the case of B2, the Km [4] is reported as 28 ± 1 µM, the kcat [4] is reported as 21 ± 0.4 s⁻¹ and the Km [5] is reported as 49 ± 3 µM. The kcat [5] was 24 ± 0.8 s⁻¹, the Km [6] was 33 ± 2 µM and the kcat [6] was 18 ± 1 s⁻¹.
